According to patent US20230408517A1 (BIO TECHNE, published 2023):
Read-outs that look alike come from different tables or passages of the source.

B1: 1035753 (antibody, V domains shown)
VH: EVQLQQSGAELVRPGALVKLSCKASGFNIKDYYMHWVKQRPEQGLEWIGWIDPENGNTIYDPKFLGKASITADTSSNTAYLQLSSLTSEDTAVYYCARWYYYAMDSWGQGTSVTVSS
VL: DIQMTQTTSSLSASLGDRVTISCSASQGISNYLNWYQQKPDGTVKLLIYYTSSLHSGVPSRFSGSGSGTDYSLTISNLEPEDIATYYCQQYSKLPFTFGGGTNLEMK
B2: 1035224 (antibody, V domains shown)
VH: EVQLQQSGAEFVRPGALVKLSCKASGFNIKDDYMHWVKQRPEQGLEWIGWIDPENGNSIYDPKFQGKASITADTSSNTAYLQLSSLTSEDTAVYYCARGEYFGSGSFAYWGQGTLVTVSA
VL: QIVLTQSPAIMSASPGEKVTISCSASSSVSYMYWYQQKPGSSPKPWIYRTSNLASGVPARFSGSGSGTSYSLTISSMEAEDAATYYCQQYHSYPYMYTFGGGTKLEIK

What was measured:
[1] = molecular target: T1, BR P.1 variant RBD (R319-F541 with K417T, E484K, N501Y), C-terminal 6-His (SARS-CoV-2, UniProt P0DTC2 319-541); assay: lateral flow NC50, RBD-AuNP vs immobilised ACE2
[2] = molecular target: T478K RBD (R319-F541 with T478K) (SARS-CoV-2, UniProt P0DTC2 319-541); assay: lateral flow NC50, RBD-AuNP vs immobilised ACE2
[3] = molecular target: BR P.2 variant RBD (R319-F541 with E484K) (SARS-CoV-2, UniProt P0DTC2 319-541); assay: lateral flow NC50, RBD-AuNP vs immobilised ACE2
[4] = molecular target: K417E RBD (R319-F541 with K417E) (SARS-CoV-2, UniProt P0DTC2 319-541); assay: lateral flow NC50, RBD-AuNP vs immobilised ACE2
[5] = molecular target: T2, UK variant RBD (R319-F541 with N501Y), C-terminal 6-His (SARS-CoV-2, UniProt P0DTC2 319-541); assay: lateral flow NC50, RBD-AuNP vs immobilised ACE2
[6] = molecular target: T3, SA variant RBD (R319-F541 with K417N, E484K, N501Y), C-terminal 6-His (SARS-CoV-2, UniProt P0DTC2 319-541); assay: lateral flow NC50, RBD-AuNP vs immobilised ACE2
[7] = molecular target: T4, recombinant SARS-CoV-2 spike S1 RBD (R319-F541), C-terminal 6-His (SARS-CoV-2, UniProt P0DTC2 319-541); assay: lateral flow NC50, RBD-AuNP vs immobilised ACE2
[8] = molecular target: T1, BR P.1 variant RBD (R319-F541 with …); assay: sandwich dipstick, detector Ab5-AuNP
[9] = molecular target: T2, UK variant RBD (R319-F541 with N501Y), …; assay: sandwich dipstick, detector Ab5-AuNP
[10] = molecular target: T3, SA variant RBD (R319-F541 with K417N, …); assay: sandwich dipstick, detector Ab5-AuNP
[11] = molecular target: T4, recombinant SARS-CoV-2 spike S1 RBD …; assay: sandwich dipstick, detector Ab5-AuNP
[12] = molecular target: T1, BR P.1 variant RBD (R319-F541 with …); assay: lateral flow NC50, RBD-AuNP vs immobilised ACE2; remark: listed apart in the source
[13] = molecular target: T2, UK variant RBD (R319-F541 with N501Y), …; assay: lateral flow NC50, RBD-AuNP vs immobilised ACE2; remark: listed apart in the source
[14] = molecular target: T3, SA variant RBD (R319-F541 with K417N, …); assay: lateral flow NC50, RBD-AuNP vs immobilised ACE2; remark: listed apart in the source
[15] = molecular target: T4, recombinant SARS-CoV-2 spike S1 RBD …; assay: lateral flow NC50, RBD-AuNP vs immobilised ACE2; remark: listed apart in the source
[16] = molecular target: T1, BR P.1 variant RBD (R319-F541 with …); assay: sandwich dipstick, detector Ab4-AuNP
[17] = molecular target: T2, UK variant RBD (R319-F541 with N501Y), …; assay: sandwich dipstick, detector Ab4-AuNP
[18] = molecular target: T3, SA variant RBD (R319-F541 with K417N, …); assay: sandwich dipstick, detector Ab4-AuNP
[19] = molecular target: T4, recombinant SARS-CoV-2 spike S1 RBD …; assay: sandwich dipstick, detector Ab4-AuNP
[20] = molecular target: T4, recombinant SARS-CoV-2 spike S1 RBD …; assay: flow cytometry, blocking of binding to hACE-2 cells
[21] = molecular target: T5, IN v1 variant RBD (R319-F541 with L452R, E484Q) (SARS-CoV-2, UniProt P0DTC2 319-541); assay: lateral flow assay: blocking of RBD-AuNP capture by ACE2
[22] = molecular target: T6, L452R RBD (R319-F541 with L452R) (SARS-CoV-2, UniProt P0DTC2 319-541); assay: as above
[23] = molecular target: T7, IN v2 variant RBD (R319-F541 with L452R, T478K) (SARS-CoV-2, UniProt P0DTC2 319-541); assay: as above
[24] = molecular target: T1, BR P.1 variant RBD (R319-F541 with …); assay: flow cytometry, blocking of binding to hACE-2 cells
[25] = molecular target: rSARS2 RBD aa319-541, N439K, C-His (SARS-CoV-2, UniProt P0DTC2 319-541); assay: as above
[26] = molecular target: rSARS2-B.1.617.2 S aa16-1211 10+4x aa mut., C-His (SARS-CoV-2, UniProt P0DTC2 16-1211); assay: as above
[27] = molecular target: T7, IN v2 variant RBD (R319-F541 with …); assay: as above
[28] = molecular target: rSARS2-B.1.1.7 S aa16-1211 2x aa mut., C-His (SARS-CoV-2, UniProt P0DTC2 16-1211); assay: as above
[29] = molecular target: rSARS2-B.1.1.7 S aa16-1211 4x aa mut., C-His (SARS-CoV-2, UniProt P0DTC2 16-1211); assay: as above
[30] = molecular target: T4, recombinant SARS-CoV-2 spike S1 RBD …; assay: as above; remark: listed apart in the source
[31] = molecular target: T6, L452R RBD (R319-F541 with L452R); assay: dipstick, adsorbed RBD spots, Ab 10 µg/mL, GAM-AuNP
[32] = molecular target: T5, IN v1 variant RBD (R319-F541 with …); assay: lateral flow assay: blocking of RBD-AuNP capture by ACE2; remark: listed apart in the source
[33] = molecular target: T7, IN v2 variant RBD (R319-F541 with …); assay: as above; remark: listed apart in the source

Row | Binder | IC50 [1] [µg/mL] | IC50 [2] [µg/mL] | IC50 [3] [µg/mL] | IC50 [4] [µg/mL] | IC50 [5] [µg/mL] | IC50 [6] [µg/mL] | IC50 [7] [µg/mL] | detection sensitivity [8] [µg/mL] | detection sensitivity [9] [µg/mL] | detection sensitivity [10] [µg/mL] | detection sensitivity [11] [µg/mL] | IC50 [12] [µg/mL] | IC50 [13] [µg/mL] | IC50 [14] [µg/mL] | IC50 [15] [µg/mL] | detection sensitivity [16] [µg/mL] | detection sensitivity [17] [µg/mL] | detection sensitivity [18] [µg/mL] | detection sensitivity [19] [µg/mL] | percent blocking [20] [%] | also measured
1 | B1 | 2.21 | 2.29 | 3.22 | 0.89 | 1.51 | 3.19 | 1.66 | 0.001 | 0.001 | 0.001 | 0.001 | 2.21 | 1.51 | 3.19 | 1.66 | 0.01 | 0.01 | 0.01 | 0.01 | 94.7 | binding result [21]: no binding (tested: 10 µg/mL); binding result [22]: no binding (tested: 10 µg/mL); binding result [23]: no binding (tested: 10 µg/mL); percent blocking [24]: 90.4%; percent blocking [25]: 96.2%; percent blocking [26]: 0%; percent blocking [27]: 0%; percent blocking [28]: 93.6%; percent blocking [29]: 81.2%; percent blocking [30]: 94.7%
2 | B2 | 1.11 | 0.76 | 0.54 | 0.38 | 2.72 | 1.14 | 0.66 | 0.001 | 0.001 | 0.001 | 0.001 | 1.11 | 2.72 | 1.14 | 0.66 | 0.01 | 0.01 | 0.01 | 0.01 | 99.1 | binding result [31]: no binding (tested: 10 µg/mL); percent blocking [24]: 88%; percent blocking [25]: 96.1%; percent blocking [26]: 0%; percent blocking [27]: 0%; percent blocking [28]: 33.9%; percent blocking [29]: 74.1%; percent blocking [30]: 99.1%; binding result [32]: no binding (tested: 10 µg/mL); binding result [33]: no binding (tested: 10 µg/mL)
